System: blocking anti-c-Src monoclonal antibodies

| Substance | TIMP-2 tyrosine phosphorylation in HT1080 CM (pulldown, anti-phos-Tyr immunoblot) | TIMP-2 tyrosine phosphorylation in SYF+c-Src CM (pulldown, anti-phos-Tyr immunoblot) |
| --- | --- | --- |
| secreted c-Src (e-Src) in conditioned media of HT1080 human fibrosarcoma cells | TIMP-2 tyrosine phosphorylation was abolished |  |
| secreted c-Src (e-Src) in conditioned media of SYF+c-Src cells |  | TIMP-2 tyrosine phosphorylation was abolished |

Source: patent US20190322724
